Results on one substance are retold here after publication PMC4197845.

Where two headings read alike, the source gives them in different places.

For assay [1], the target named is epidermal growth factor receptor on live cells (human (endogenous in UM-SCC-14C and A431)) (UniProt P00533). The experiment in a line: radioligand binding.
The target is the same in assay [2]. Kind of assay: radioligand binding. The source holds these as a separate data set.

Broadly, the Kd is the free concentration of one partner at which half of the binding sites on the other are occupied at equilibrium, for simple one-to-one binding. Read a high Kd as a looser complex. For “bi-paratopic nanobody 9G8-7D12 (bispecific antibody)”, the equilibrium dissociation constant (Kd) in assay [1] amounted to 7.5 nM; in assay [2], 7.1 nM.
